Experimental data reported in article PMC7437355.
Numbering of substitutions follows the chain as printed. Names may count otherwise. Values belong to the binder of their own block, whether it stands above or below them.

Experiments:
[1] = target: T1, SPRED1(EVH1), SPRED1(13–125), wild type (ITC), Q7Z699; test: ITC; conditions: chain shown with the change
T1 chain: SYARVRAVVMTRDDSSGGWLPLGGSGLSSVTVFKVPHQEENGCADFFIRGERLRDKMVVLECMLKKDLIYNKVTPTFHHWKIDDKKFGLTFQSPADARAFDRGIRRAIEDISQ

[2] = target: T2, NF1(GRD), neurofibromin GAP-related domain, wild type (ITC), P21359-2; test: ITC; conditions: chain shown with the change
T2 chain: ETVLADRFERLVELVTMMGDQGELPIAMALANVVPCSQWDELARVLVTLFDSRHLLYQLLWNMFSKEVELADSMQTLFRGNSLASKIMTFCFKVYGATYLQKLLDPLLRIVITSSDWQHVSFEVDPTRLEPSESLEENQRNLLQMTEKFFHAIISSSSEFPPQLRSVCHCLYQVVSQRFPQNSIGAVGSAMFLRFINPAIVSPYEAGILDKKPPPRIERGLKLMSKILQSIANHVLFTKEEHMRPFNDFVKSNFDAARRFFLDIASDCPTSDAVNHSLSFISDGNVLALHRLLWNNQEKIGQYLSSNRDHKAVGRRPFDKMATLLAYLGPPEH

[3] = target: NF1(GRD), neurofibromin GAP-related domain, wild type (ITC) (human) (UniProt P21359); test: ITC; MicroCal PEAQ-ITC, 25°C, 19 injections of 2.2 μL; 20 mM HEPES (pH 7.3), 150 mM NaCl, 5 mM MgCl2, 1 mM TCEP; one set of sites model; protein in the cell not given
NF1(GRD) D1217A (human) = NF1(GRD) D1217A (human) (UniProt P21359); test: as above
NF1(GRD) R1250A (human) = NF1(GRD) R1250A (human) (UniProt P21359); test: as above

Kd [1]: 14 µM
B1: NF1(GRD), neurofibromin GAP-related domain, wild type (ITC), P21359-2 D1217A (protein)
chain: T2 chain with D20A

Kd [1]: 1.08 µM
B2: NF1(GRD), neurofibromin GAP-related domain, wild type (ITC), P21359-2 R1250A (protein)
chain: T2 chain with R53A

Kd [2]: 4 µM
B3: SPRED1(EVH1), SPRED1(13–125), wild type (ITC), Q7Z699 R24Q (protein)
chain: T1 chain with R12Q

fold weaker binding than wild-type SPRED1 (printed as decrease in KD) [3]: > 100 fold
B4: SPRED1(13–125) G30R (domain or fragment)
chain: T1 chain with G18R

fold weaker affinity than wild-type NF1(GRD) (NF1(GRD) D1217A (human)): > 50 fold | fold reduced binding against wild-type NF1(GRD) (NF1(GRD) R1250A (human)): 5 fold | Kd [3]: 0.224 µM
B5: SPRED1(EVH1), SPRED1(13–125), wild type (ITC) (domain or fragment)
chain: T1 chain

Kd [2]: 33.7 µM
B6: SPRED1(EVH1), SPRED1(13–125), wild type (ITC), Q7Z699 G30R (protein)
chain: T1 chain with G18R

fold weaker affinity than wild-type SPRED1 [3]: 10 fold
B7: SPRED1(13–125) S105D, purified phosphomimetic (domain or fragment)
chain: T1 chain with S93D

fold weaker binding than wild-type SPRED1 [3]: 20 fold
B8: SPRED1(13–125) R24Q (domain or fragment)
chain: T1 chain with R12Q
